In the RNAGym collection of RNA variant scans (doi:10.7554/elife.80360):

B1: Hammerhead Ribozyme (parent)
chain: ACCGGAUGUGCUUUCCGGUCUGAUGAGUCCGUGAGGACGAAACAG

Variants of: B1
Assay: self-cleavage, relative activity (ratio to wild type); higher = more cleavage; co-transcriptional
C16G A26C gave a self-cleavage of 0.305.
C15G C29A gave a self-cleavage of 0.404.
Work on C15G C29U yielded a self-cleavage of 0.822.
For C30G G36C, the self-cleavage was 0.441.
G10U U24C showed a self-cleavage of 1.13.
G10U U24G gave a self-cleavage of 1.16.
U13G A44G gave a self-cleavage of 1.7.
U14C A26G gave a self-cleavage of 0.359.
For G22C G36A, the self-cleavage was 0.317.
In the case of C30G C38A, the self-cleavage is reported as 0.402.
Work on C16G U28C yielded a self-cleavage of 0.269.
G27A A34U gave a self-cleavage of 0.574.
With U21C U32C the self-cleavage was 0.96.
In the case of G39U A40U, the self-cleavage is reported as 0.307.
U24A G33C showed a self-cleavage of 1.21.
U9C G31A gave a self-cleavage of 1.39.
Variant C20G C38U has a self-cleavage of 0.38.
In the case of C15U C30U, the self-cleavage is reported as 0.735.
For A26U C29A, the self-cleavage was 0.311.
G10A A41U showed a self-cleavage of 0.386.
With G5U C38U the self-cleavage was 0.498.
G5U C38A gave a self-cleavage of 0.431.
C15A U24G showed a self-cleavage of 0.743.
C3A A34G gave a self-cleavage of 0.515.
In the case of C16U A44U, the self-cleavage is reported as 0.845.
G27A U32A gave a self-cleavage of 0.736.
With A6U A42U the self-cleavage was 0.241.
Variant U12C A40U has a self-cleavage of 0.379.
In the case of U12C A40C, the self-cleavage is reported as 0.531.
Variant G25U G33A has a self-cleavage of 0.374.
C2A A41G gave a self-cleavage of 0.294.
In the case of G8C C29G, the self-cleavage is reported as 0.571.
Work on C11G C38G yielded a self-cleavage of 0.692.
For U7G U19G, the self-cleavage was 0.304.
Work on U14C C29U yielded a self-cleavage of 0.709.
In the case of U12A C43G, the self-cleavage is reported as 0.301.
Work on A6G C30G yielded a self-cleavage of 0.594.
G17A A23G gave a self-cleavage of 0.306.
U19G G45U showed a self-cleavage of 0.389.
Work on A1C U32G yielded a self-cleavage of 0.302.
In the case of C11G U19A, the self-cleavage is reported as 0.296.
In the case of U19G C30A, the self-cleavage is reported as 0.376.
A6C C29G showed a self-cleavage of 0.482.
Variant U12G U14C has a self-cleavage of 0.677.
G22C U32C showed a self-cleavage of 0.335.
In the case of G17A G31C, the self-cleavage is reported as 0.652.
Variant G25U U32G has a self-cleavage of 0.392.
G25U U32A showed a self-cleavage of 0.32.
A23G C43A showed a self-cleavage of 0.304.
With C30U U32A the self-cleavage was 0.892.
For G8C U24A, the self-cleavage was 1.17.
In the case of A6U G25A, the self-cleavage is reported as 0.308.
With G4U G27A the self-cleavage was 0.312.
For G8C A37C, the self-cleavage was 1.05.
G8C A37G showed a self-cleavage of 1.2.
Work on C15A G22C yielded a self-cleavage of 0.3.
C3U U28C gave a self-cleavage of 0.854.
A1U G8A showed a self-cleavage of 0.687.
Variant G10A G39U has a self-cleavage of 0.401.
Variant A26G A42G has a self-cleavage of 0.225.
U7G A41C gave a self-cleavage of 0.422.
G5C A6G showed a self-cleavage of 0.437.
Variant U13A C29A has a self-cleavage of 0.759.
For C20G A42G, the self-cleavage was 0.324.
For C3G G5C, the self-cleavage was 0.268.
Work on U9C G18C yielded a self-cleavage of 0.47.
For C2U U13C, the self-cleavage was 1.34.
With C16U G45A the self-cleavage was 0.89.
Work on C30U C38U yielded a self-cleavage of 1.1.
A1G U13C showed a self-cleavage of 1.87.
Variant A37U A42G has a self-cleavage of 0.271.
For A6G C11A, the self-cleavage was 0.965.
A37G C43A showed a self-cleavage of 0.332.
Work on G33U A37C yielded a self-cleavage of 1.04.
A23U C29A showed a self-cleavage of 0.352.
Work on G35U A42U yielded a self-cleavage of 0.344.
For U12G A42C, the self-cleavage was 0.239.
C11U G27C showed a self-cleavage of 0.58.
In the case of U7C A44U, the self-cleavage is reported as 0.582.
C20A G22A gave a self-cleavage of 0.287.
Variant G18A A34C has a self-cleavage of 0.537.
A1C G4A showed a self-cleavage of 0.406.
In the case of A41U A44G, the self-cleavage is reported as 0.759.
With G35A A44C the self-cleavage was 0.42.
With C3A C15G the self-cleavage was 0.346.
G4U G36C gave a self-cleavage of 0.313.
Work on U14A G31U yielded a self-cleavage of 1.31.
G5U G45A showed a self-cleavage of 0.431.
In the case of C11G A37G, the self-cleavage is reported as 1.02.
G4U A42G gave a self-cleavage of 0.336.
Variant G25C C38A has a self-cleavage of 0.367.
With A6C U14C the self-cleavage was 0.495.
With A6C G33A the self-cleavage was 0.689.
G33C A41C showed a self-cleavage of 0.432.
U19G A44G gave a self-cleavage of 0.623.
Work on U7C G10C yielded a self-cleavage of 0.781.
U13G C20G showed a self-cleavage of 0.244.
Work on C16A G45U yielded a self-cleavage of 0.563.
C30A C43G gave a self-cleavage of 0.386.
With G5U A6C the self-cleavage was 0.336.
With U14C U24C the self-cleavage was 0.889.
G8A A23U showed a self-cleavage of 0.383.
For A26C A37U, the self-cleavage was 0.506.
For U14G U24C, the self-cleavage was 0.611.
U9C C30G gave a self-cleavage of 0.955.
In the case of C16A C43G, the self-cleavage is reported as 0.294.
Variant C2G G8U has a self-cleavage of 0.387.
Variant C3G C15A has a self-cleavage of 0.298.
In the case of G33U G36U, the self-cleavage is reported as 0.618.
For A6C A42C, the self-cleavage was 0.35.
A23G G36A showed a self-cleavage of 0.34.
With U13A A41G the self-cleavage was 0.311.
For G33A G35A, the self-cleavage was 0.825.
Work on C2G C30U yielded a self-cleavage of 0.354.
C30A G33A showed a self-cleavage of 1.21.
Work on U9C A40U yielded a self-cleavage of 0.406.
G27C C29A gave a self-cleavage of 0.414.
With A6G G8A the self-cleavage was 1.17.
Variant U14A U32C has a self-cleavage of 0.946.
Work on A44U G45A yielded a self-cleavage of 0.607.
With G22C G33A the self-cleavage was 0.266.
C2A U12G showed a self-cleavage of 0.736.
In the case of G22U U24C, the self-cleavage is reported as 0.348.
In the case of U9C C20G, the self-cleavage is reported as 0.437.
In the case of C16A G39C, the self-cleavage is reported as 0.337.
U32A G45A showed a self-cleavage of 0.852.
For C20U C43A, the self-cleavage was 0.264.
Work on C2A G5U yielded a self-cleavage of 0.319.
For A6G G31A, the self-cleavage was 0.853.
For C2G G5U, the self-cleavage was 0.296.
C20G G27A gave a self-cleavage of 0.381.
C20A A41U gave a self-cleavage of 0.335.
U28A C30G gave a self-cleavage of 0.384.
In the case of C16A A40U, the self-cleavage is reported as 0.284.
In the case of A26C G35U, the self-cleavage is reported as 0.334.
For G10C G18C, the self-cleavage was 0.614.
G25A G45A showed a self-cleavage of 0.336.
For A34G C38U, the self-cleavage was 1.13.
Work on A23C A34U yielded a self-cleavage of 0.298.
A37U G45U gave a self-cleavage of 0.48.
U9G U28G gave a self-cleavage of 0.729.
Work on C3U U21C yielded a self-cleavage of 0.731.
For A6U G8C, the self-cleavage was 0.769.
G17A U21C gave a self-cleavage of 0.294.
Variant C3A A44G has a self-cleavage of 1.01.
In the case of U24C C30U, the self-cleavage is reported as 1.14.
Variant C16G G27A has a self-cleavage of 0.42.
C15G G39A gave a self-cleavage of 0.327.
Work on C2G U28A yielded a self-cleavage of 0.37.
With U9A G33U the self-cleavage was 0.908.
G4C C38A showed a self-cleavage of 0.478.
In the case of G4U A34C, the self-cleavage is reported as 0.296.
In the case of C3U G5A, the self-cleavage is reported as 0.491.
Variant A1C U7G has a self-cleavage of 0.377.
With U21C U24C the self-cleavage was 0.909.
With U21C U24G the self-cleavage was 1.07.
U13A A23C showed a self-cleavage of 0.503.
C11G A40C showed a self-cleavage of 0.838.
G31A A41U gave a self-cleavage of 0.399.
Work on A1U C15G yielded a self-cleavage of 0.355.
U12A C38U gave a self-cleavage of 0.87.
In the case of U9A A37U, the self-cleavage is reported as 0.593.
U9A A37C gave a self-cleavage of 1.02.
G10A A44G gave a self-cleavage of 1.71.
In the case of C3G U7C, the self-cleavage is reported as 0.462.
With U32G C38G the self-cleavage was 0.497.
G8C G35A gave a self-cleavage of 0.769.
